For this data set, the target named is anti-EGFR activatable antibodies comprising substrates 2001, 2006-2010 and 2012.

B1: human matriptase (protein)
chain: VVGGTDADEGEWPWQVSLHALGQGHICGASLISPNWLVSAAHCYIDDRGFRYSDPTQWTAFLGLHDQSQRSAPGVQERRLKRIISHPFFNDFTFDYDIALLELEKPAEYSSMVRPICLPDASHVFPAGKAIWVTGWGHTQYGGTGALILQKGEIRVINQTTCENLLPQQITPRMMCVGFLSGGVDSCQGDSGGPLSSVEADGRIFQAGVVSWGDGCAQRNKPGVYTRLPLFRDWIKENTGV
For the protein B1, the kcat/Km entry is on record as “a range of kcat/Km values ranging from 6E+02 to 2E+04”.

(Values after US20210355208.)
